Patent US12195506B2, “Immunotherapy with A*01 restricted peptides and combination of peptides against cancers and related methods” (Immatics Biotechnologies GmbH, priority 2018, dated 2025)

Target: HLA-A*01:01 (Homo sapiens, UniProt P04439, A114D/A174V/A182V/D101N/D185E/E176A/E190D/L180R/Q94H/R68K/S129P/T187R/V100A/V91M/W191G)
Assay: MHC binding assay: UV-ligand exchange, ELISA of stabilized MHC complexes (peptide exchange yield)
Conditions: binding to HLA-A*01:01, UV-ligand exchange
Procedure, shortened: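 Peptide–MHC complexes were formed by UV-induced exchange of a photocleavable ligand for the test peptide. Exchange yield was measured by streptavidin-capture ELISA of 100-fold diluted complexes, detected with HRP anti-β2m at A450. Refolded HLA-A*02:01/MLA-001 monomers at 15-500 ng/ml served as standards.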

Q: How did the Peptide exchange turn out when “239 (SSERGSPIEKY; listed as Homo sapiens) [compound 239]” was run?
A: Its Peptide exchange is “+++ (>50 = +++)”.

Q: “240 (EVLDSLLAQY; listed as Homo sapiens) [compound 240]” was tested. Which Peptide exchange did it give?
A: The Peptide exchange was “++ (>20% = ++)”.

Q: Which Peptide exchange does the source give for “241 (SLMVASLTY; listed as Homo sapiens) [compound 241]” here?
A: The Peptide exchange was “++ (>20% = ++)”.

Q: How did the Peptide exchange turn out when “242 (GTNLPTLLW; listed as Homo sapiens) [compound 242]” was run?
A: The Peptide exchange was “+ (>10% =+)”.

Q: For “243 (LTSEDTGAY; listed as Homo sapiens) [compound 243]”, which Peptide exchange is on record?
A: The Peptide exchange was “+++ (>50 = +++)”.

Q: With “244 (VTKYIAGPY; listed as Homo sapiens) [compound 244]” as the substance, how does the Peptide exchange read?
A: Its Peptide exchange is “++ (>20% = ++)”.

Q: How did the Peptide exchange turn out when “245 (LSDNAANRY; listed as Homo sapiens) [compound 245]” was run?
A: Its Peptide exchange is “+++ (>50 = +++)”.

Q: With “246 (ARLEGEIATY; listed as Homo sapiens) [compound 246]” as the substance, how does the Peptide exchange read?
A: The Peptide exchange was “++ (>20% = ++)”.

Q: For “247 (SMIRVGTNY; listed as Homo sapiens) [compound 247]”, which Peptide exchange is on record?
A: The Peptide exchange was “++ (>20% = ++)”.

Q: With “248 (VTDIDELGK; listed as Homo sapiens) [compound 248]” as the substance, how does the Peptide exchange read?
A: Its Peptide exchange is “+++ (>50 = +++)”.

Q: With “249 (GVGFTELEY; listed as Homo sapiens) [compound 249]” as the substance, how does the Peptide exchange read?
A: The Peptide exchange was “+++ (>50 = +++)”.

Q: With “250 (GYVCNACGLY; listed as Homo sapiens) [compound 250]” as the substance, how does the Peptide exchange read?
A: Its Peptide exchange is “++ (>20% = ++)”.

Q: “251 (GIEMTYETY; listed as Homo sapiens) [compound 251]” was tested. Which Peptide exchange did it give?
A: The Peptide exchange was “++ (>20% = ++)”.

Q: With “252 (DTTSHTYLQY; listed as Homo sapiens) [compound 252]” as the substance, how does the Peptide exchange read?
A: Its Peptide exchange is “++ (>20% = ++)”.

Q: For “253 (YLESHGLAY; listed as Homo sapiens) [compound 253]”, which Peptide exchange is on record?
A: The Peptide exchange was “++++ (>75% = ++++)”.

Q: For “254 (FLFNDALLY; listed as Homo sapiens) [compound 254]”, which Peptide exchange is on record?
A: Its Peptide exchange is “++++ (>75% = ++++)”.

Q: For “255 (WELDSLEY; listed as Homo sapiens) [compound 255]”, which Peptide exchange is on record?
A: The Peptide exchange was “++ (>20% = ++)”.

Q: How did the Peptide exchange turn out when “256 (HAFESNNFIY; listed as Homo sapiens) [compound 256]” was run?
A: The Peptide exchange was “++ (>20% = ++)”.

Q: How did the Peptide exchange turn out when “257 (KSEMNVNMKY; listed as Homo sapiens) [compound 257]” was run?
A: Its Peptide exchange is “++++ (>75% = ++++)”.

Q: Which Peptide exchange does the source give for “258 (RPSSVLTIY; listed as Homo sapiens) [compound 258]” here?
A: The Peptide exchange was “+++ (>50 = +++)”.

Q: With “259 (APDEVVALL; listed as Homo sapiens) [compound 259]” as the substance, how does the Peptide exchange read?
A: The Peptide exchange was “++ (>20% = ++)”.

Q: Which Peptide exchange does the source give for “260 (KPTEDSANVY; listed as Homo sapiens) [compound 260]” here?
A: The Peptide exchange was “+++ (>50 = +++)”.

Q: “261 (MTEGSTVNTEY; listed as Homo sapiens) [compound 261]” was tested. Which Peptide exchange did it give?
A: Its Peptide exchange is “++++ (>75% = ++++)”.

Q: For “262 (NVKHFLNDLY; listed as Homo sapiens) [compound 262]”, which Peptide exchange is on record?
A: Its Peptide exchange is “+++ (>50 = +++)”.

Q: “263 (DCMDTEGSYM; listed as Homo sapiens) [compound 263]” was tested. Which Peptide exchange did it give?
A: Its Peptide exchange is “++ (>20% = ++)”.

Q: With “264 (YRDPVFVSL; listed as Homo sapiens) [compound 264]” as the substance, how does the Peptide exchange read?
A: The Peptide exchange was “++ (>20% = ++)”.

Q: “265 (LSDIDSRYI; listed as Homo sapiens) [compound 265]” was tested. Which Peptide exchange did it give?
A: The Peptide exchange was “++ (>20% = ++)”.

Q: With “266 (LTDSFLLRF; listed as Homo sapiens) [compound 266]” as the substance, how does the Peptide exchange read?
A: Its Peptide exchange is “++++ (>75% = ++++)”.

Q: How did the Peptide exchange turn out when “267 (IVADDTVY; listed as Homo sapiens) [compound 267]” was run?
A: Its Peptide exchange is “+++ (>50 = +++)”.

Q: With “268 (AILHHLYFY; listed as Homo sapiens) [compound 268]” as the substance, how does the Peptide exchange read?
A: The Peptide exchange was “+ (>10% =+)”.

Q: Which Peptide exchange does the source give for “269 (LPSPAATIWDY; listed as Homo sapiens) [compound 269]” here?
A: The Peptide exchange was “+++ (>50 = +++)”.

Q: For “270 (DLKIDLAAQY; listed as Homo sapiens) [compound 270]”, which Peptide exchange is on record?
A: The Peptide exchange was “++ (>20% = ++)”.

Q: How did the Peptide exchange turn out when “271 (VAEPPVVCSY; listed as Homo sapiens) [compound 271]” was run?
A: Its Peptide exchange is “++ (>20% = ++)”.
